# Measurements from patent US20190376053A1.
# pKd: −log10 of the molar value.
# Experiments:
# [1] = biological target: collagen fibril (porcine skin fiber, Nippi, Inc) (porcine); assay: collagen fibril binding assay (spin column, SDS-PAGE of the unbound protein, Scatchard plot)
# [2] = biological target: mini-collagen peptide H-Gly-Pro-Arg-Gly-(Pro-Hyp-Gly)12-NH2; assay: SPR (Biacore); ratio of KD, ColHS2bS3 = 1.00
# [3] = biological target: mini-collagen peptide H-Gly-Pro-Arg-Gly-(Pro-Hyp-Gly)12-NH2; assay: SPR (Biacore), peptide immobilized, equilibrium fit, apparent KD
Substance,pKd [1],Ratio [2],pKd [3]
collagen-binding domain s3a derived from Clostridium histolyticum class I collagenase ColG (from UniProt Q9X721 886-1003),4.00,–,–
collagen-binding domain s3b derived from Clostridium histolyticum class I collagenase ColG (from UniProt Q9X721 1003-1118),–,0.102,4.34
tandem collagen-binding domain (s3a-s3b) derived from Clostridium histolyticum class I collagenase ColG (from UniProt Q9X721 886-1118),–,0.1,4.35
